Drawing on patent publication US20220033505A1, this text covers Geomean fluorescence signal (maximum value for binding) for one molecule.

Assay [1] deals with HLA-A exogenously expressed on cells (K562-HLA-A) (human) (UniProt P04439). Put plainly: flow cytometry; IgG1 mAb on cells expressing HLA-A.
For assay [2], the target named is HLA-B exogenously expressed on cells (K562-HLA-B) (human) (UniProt P01889). Put plainly: flow cytometry; IgG1 mAb on cells expressing HLA-B.
Assay [3] has as its target HLA-C exogenously expressed on cells (K562-HLA-C) (human) (UniProt P10321). The experiment in a line: flow cytometry; IgG1 mAb on cells expressing HLA-C.

Chain of HLA-C exogenously expressed on cells (K562-HLA-C) (human) (P10321 25-366): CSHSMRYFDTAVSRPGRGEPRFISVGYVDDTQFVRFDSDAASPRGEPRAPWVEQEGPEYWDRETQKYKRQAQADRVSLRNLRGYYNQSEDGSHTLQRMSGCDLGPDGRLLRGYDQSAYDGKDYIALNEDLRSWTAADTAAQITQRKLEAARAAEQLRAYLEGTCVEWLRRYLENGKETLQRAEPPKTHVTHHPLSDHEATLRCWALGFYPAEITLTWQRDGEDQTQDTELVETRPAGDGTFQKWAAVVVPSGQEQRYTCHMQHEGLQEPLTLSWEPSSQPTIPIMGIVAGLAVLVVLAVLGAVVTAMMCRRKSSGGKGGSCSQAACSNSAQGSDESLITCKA
Chain of HLA-B exogenously expressed on cells (K562-HLA-B) (human) (P01889 25-362): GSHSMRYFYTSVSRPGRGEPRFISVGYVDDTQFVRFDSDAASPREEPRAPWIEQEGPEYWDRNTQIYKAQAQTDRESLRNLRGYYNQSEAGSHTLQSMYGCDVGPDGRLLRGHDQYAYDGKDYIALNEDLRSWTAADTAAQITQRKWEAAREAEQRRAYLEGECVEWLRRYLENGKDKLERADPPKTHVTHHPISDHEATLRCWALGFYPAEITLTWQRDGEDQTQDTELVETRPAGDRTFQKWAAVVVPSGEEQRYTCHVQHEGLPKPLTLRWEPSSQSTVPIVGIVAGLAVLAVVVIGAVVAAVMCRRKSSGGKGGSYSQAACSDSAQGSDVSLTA

B1: MHGB689 (antibody, human IgG1, kappa, V domains shown)
VH: QVQLQQSGPGLVKPSQTLSLTCVISGDSVSSNRAAWNWIRQSPSRGLEWLGRTYYRSKWYNDYAVSVKSRITINSDTSKNQISLQLNSVTPEDTAVYYCARVRPGIPFDYWGQGTTVTVSS
VL: DIQMTQSPDSLAVSLGERATINCESSQSVLFSSNKKNYLAWYQQKPGQPPKLLIYWASTRESGVPDRFSGSGSGTDFTLTINRLQAEDVAVYYCQQYNSTPWTFGQGTKVEIKR
Turning to B1, the Geomean fluorescence signal (maximum value for binding) in assay [1] turned out to be 2540; in assay [2], 5790; in assay [3], 266.
